According to article PMC11546553, “Chitin Translocation Is Functionally Coupled with Synthesis in Chitin Synthase” (International Journal of Molecular Sciences, 2024):

Molecular target: the molecule itself
Assay: cryo-EM structure; purified PsCHS at 3 mg/mL in digitonin, incubated with 0.5 mM UDP-GlcNAc and 1 mM Mn2+ for 15 min or 40 min at 25 °C before freezing; UDP/Mn2+-bound state resolved for both samples

B1: Phytophthora sojae chitin synthase 1 (enzyme)
chain: MSGAPPPSSGFAPRSYGQQPLSHAPRSSMMSVEYDGIPLPPPSIRSCGSQQYVTSYIPTGAAFPPSSVQDMISSMKSYASATDLVRTYSEIPSVEEALSTLDRAAAALNARRYRDALKLYLEGGYAMANVAERQANPKICNLLTSKGFETLNWCARLCDWIEGRIKEKHPRPGVHKVGIPVSNWDEDWVGPFMDEEEARRMWYTPVYCPHPIDFSNLGYRLRCVETGRRPRLMICITMYNEGPQQLKATLKKLANNLAYLKEQMPGDEKSLTGAFAGDDVWQNVLVCIVADGREQVHPKTLDYLEAIGLYDEDLLTINSAGIGAQCHLFEHTLQLSVNGKCLLPIQTVFALKENKASKLDSHHWYFNAFAEQIQPEYTAVMDVGTMLTKSALYHLLFAFERNHQIGGACGQLTVDNPFENLSNWVISAQHFEYKISNILDKSLESCFGFISVLPGAFSAYRYEAIRGAPLDAYFQTLNIELDVLGPFIGNMYLAEDRILSFEVVARKNCNWTMHYVKDAVARTDVPHDLVGLISQRKRWLNGAFFATLFSIWNWGRIYSESKHTFVRKMAFLVFYVYHLLYTAFGFFLPANLYLALFFIVFQGFQQNRLEFIDTSEYSQTVLDCAVYIYNFSYLFGLLMLIIIGLGNNPKHMKLTYYFVGAVFGLMMMLSSLVGAGIFFSTPATVHSIVVSILTVGVYFIASALHGEVHHIFMTFTHYTALIPSFVNIFTIYSFCNLQDLSWGTKGLHDDPLLAASLDETEKGDFKDVIAKRRALEELRREEKERVENRKKNFEAFRTNVLLTWAFSNLIFALFVVYFASSSTYMPVLYIFVASLNTCRLLGSIGHWVYIHTEGLRGRVIDKSECGNGTGRYPQNSYVQLEEHYAALAEDQRTYASGRTNASVRTVNDVSSAA
notes: Phytophthora sojae chitin synthase 1 (PsCHS1), the PsCHS gene in pcDNA3.1; the final models lack residues 1-22, stretches within 40-90, 738-761 and 860-925; also called PsCHS; PsCHS1; source: HEK293F cells, transfected (pcDNA3.1), purified (digitonin solubilisation, Ni-NTA, Superose 6 Increase SEC)
In the case of B1, the “stoichiometry N” value is reported as 2.
